Test results taken from patent US12589164.

How the values were obtained:
[1] = test system: (MCA)-His-Gln-Ser-Arg-Pro-Trp-Gly-Leu-Gly-Ser-Lys (DNP)-D-Arg (SEQ ID NO: 660)
[2] = test system: (MCA)-His-Gln-Ser-Arg-Ser-Ala-Ile-Ala-Leu-Gly-Ser-Lys (DNP)-D-Arg (SEQ ID NO: 655)
[3] = test system: (MCA)-His-Gln-Ser-Arg-Ser-Ala-Ile-Ala-Leu-X1-Gly-Lys (DNP)-D-Arg (SEQ ID NO: 654) where X1 is Y
[4] = test system: (MCA)-His-Gln-Ser-Arg-Ser-Ala-Ile-Ala-Leu-X1-X2-Lys (DNP)-D-Arg (SEQ ID NO: 653) where X1 is Y and X2 is A
[5] = test system: (MCA)-His-Gln-Ser-Arg-Ser-Gly-Pro-Trp-Gly-Leu-X1-Lys (DNP)-D-Arg (SEQ ID NO: 659) where X1 is absent
[6] = test system: (MCA)-His-Gln-Ser-Arg-Ser-Pro-Trp-Gly-Gly-Ser-Lys (DNP)-D-Arg (SEQ ID NO: 661)
[7] = test system: (MCA)-His-Gln-Ser-Arg-Ser-Pro-Trp-Gly-Leu-Gly-Lys (DNP)-D-Arg (SEQ ID NO: 665)
[8] = test system: (MCA)-Ser-Pro-Trp-Gly-Leu-His-Gln-Ser-Arg-Gly-Lys (DNP)-D-Arg (SEQ ID NO: 663)
[9] = test system: (MCA)-Ser-Pro-Trp-Gly-Leu-His-Gln-Ser-Arg-Ser-Lys (DNP)-D-Arg (SEQ ID NO: 657)
[10] = test system: (MCA)-Ser-Pro-Trp-Gly-Leu-His-Gln-Ser-Lys-Ser-Lys (DNP)-D-Arg (SEQ ID NO: 664)
[11] = test system: D-Arg-Lys (DNP)-Ala-Ile-Ala-Leu-His-Gln-Ser-Arg-Ser-Lys (MCA)-D-Arg (SEQ ID NO: 658)
[12] = test system: peptide probe with CM AQSRSGPWGLL (SEQ ID NO: 641)
[13] = test system: peptide probe with CM HASRSGPWGLL (SEQ ID NO: 642)
[14] = test system: peptide probe with CM HQARSGPWGLL (SEQ ID NO: 643)
[15] = test system: peptide probe with CM HQSASGPWGLL (SEQ ID NO: 644)
[16] = test system: peptide probe with CM HQSRAGPWGLL (SEQ ID NO: 645)
[17] = test system: peptide probe with CM HQSRSAPWGLL (SEQ ID NO: 646)
[18] = test system: peptide probe with CM HQSRSGAWGLL (SEQ ID NO: 647)
[19] = test system: peptide probe with CM HQSRSGPAGLL (SEQ ID NO: 639)
[20] = test system: peptide probe with CM HQSRSGPWALL (SEQ ID NO: 648)
[21] = test system: peptide probe with CM HQSRSGPWGAL (SEQ ID NO: 649)
[22] = test system: peptide probe with CM HQSRSGPWGLA (SEQ ID NO: 650)

MMP9, sequence (chain, as listed by the source): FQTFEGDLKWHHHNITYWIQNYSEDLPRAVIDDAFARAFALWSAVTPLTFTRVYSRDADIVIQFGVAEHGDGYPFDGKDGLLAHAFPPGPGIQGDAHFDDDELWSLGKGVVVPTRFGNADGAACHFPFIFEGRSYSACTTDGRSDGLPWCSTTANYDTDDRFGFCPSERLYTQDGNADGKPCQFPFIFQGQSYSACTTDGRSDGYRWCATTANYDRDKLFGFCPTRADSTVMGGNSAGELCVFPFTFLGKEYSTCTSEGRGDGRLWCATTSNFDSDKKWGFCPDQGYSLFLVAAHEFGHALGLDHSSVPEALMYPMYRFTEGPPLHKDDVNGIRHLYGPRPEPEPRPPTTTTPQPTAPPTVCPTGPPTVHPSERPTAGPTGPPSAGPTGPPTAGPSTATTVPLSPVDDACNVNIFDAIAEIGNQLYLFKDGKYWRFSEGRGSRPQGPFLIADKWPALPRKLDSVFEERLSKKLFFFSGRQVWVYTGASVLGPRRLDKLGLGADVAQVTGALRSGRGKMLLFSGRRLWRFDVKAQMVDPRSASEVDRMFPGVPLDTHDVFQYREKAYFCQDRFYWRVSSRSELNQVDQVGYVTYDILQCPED

Substance MMP9 has a Probe Cleavage (pM/s) [1] of 9600 pM/s, a Probe Cleavage (pM/s) [2] of 41.9 pM/s and a Probe Cleavage (pM/s) [3] of 328 pM/s. It also gave a Probe Cleavage Kcat/KM [3] of 57000 M⁻¹ s⁻¹, a Probe Cleavage (pM/s) [4] of 255 pM/s and a Probe Cleavage Kcat/KM [4] of 24000 M⁻¹ s⁻¹. The Probe Cleavage (pM/s) [5] was 705 pM/s, the Probe Cleavage (pM/s) [6] was 86.5 pM/s and the Probe Cleavage (pM/s) [7] was 372 pM/s. For the same substance, the Probe Cleavage Kcat/KM [7] was 11000 M⁻¹ s⁻¹, the Probe Cleavage (pM/s) [8] was 18600 pM/s and the Probe Cleavage (pM/s) [9] was 5150 pM/s. The Probe Cleavage Kcat/KM [9] was 120000 M⁻¹ s⁻¹, the Probe Cleavage (pM/s) [10] was 19300 pM/s and the Probe Cleavage (pM/s) [11] was 2550 pM/s. The Probe Cleavage (pM/s) [12] was 7380 pM/s, the Probe Cleavage (pM/s) [13] was 6470 pM/s and the Probe Cleavage (pM/s) [14] was 7430 pM/s. For the same substance, the Probe Cleavage (pM/s) [15] was 5410 pM/s, the Probe Cleavage (pM/s) [16] was 7440 pM/s and the Probe Cleavage (pM/s) [17] was 10700 pM/s. It also gave a Probe Cleavage (pM/s) [18] of 436 pM/s, a Probe Cleavage (pM/s) [19] of 13900 pM/s and a Probe Cleavage (pM/s) [20] of 7500 pM/s. The Probe Cleavage (pM/s) [21] was 5.9 pM/s and the Probe Cleavage (pM/s) [22] was 6810 pM/s.
